Results: article PMC11071394
Values joined by “and” are separate entries in the source; they are usually repeats but may differ in a detail not shown here. Equal values may be shown once.

Molecular target: Sg Enc, Family 2B encapsulin shell protein from Streptomyces griseus (expressed in S. coelicolor A3(2)) (Streptomyces griseus)
Assay: cryo-EM structure

## Sg 2-methylisoborneol synthase (2-MIBS) from Streptomyces griseus, co-expressed with Sg Enc (enzyme)
  2-MIBS dimers per shell (dimers per shell): 3 and 4

## Sg Enc, Family 2B encapsulin shell protein from Streptomyces griseus (expressed in S. coelicolor A3(2)) (natural protein)
  stoichiometry N: 60 protomers
